B1: TRAF3IP2 (parent)
chain: PRPPSNPPARGTLKTSNLPEELRK
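Also: lentivirally expressed fusions sorted by FACS into six bins by GFP to DsRed ratio, PSI derived from sequencing read proportions per bin multiplied by bin number.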

Variants of: B1
Test: protein stability index of a GFP-peptide fusion (GPS, HEK-293T) (PSI 1-6); higher = more stable
Conditions: c terminus: a fixed tail appended
PRPESNPPARGTLKTSNLPEELRK [P4E] gave a protein stability index of 4.52.
In the case of PRPKSNPPARGTLKTSNLPEELRK [P4K], the protein stability index is reported as 4.91.
PRPFSNPPARGTLKTSNLPEELRK [P4F] showed a protein stability index of 4.25.
In the case of PRPNSNPPARGTLKTSNLPEELRK [P4N], the protein stability index is reported as 4.7.
PRPTSNPPARGTLKTSNLPEELRK [P4T] gave a protein stability index of 3.97.
With PRPYSNPPARGTLKTSNLPEELRK [P4Y] the protein stability index was 4.43.
Work on PRPWSNPPARGTLKTSNLPEELRK [P4W] yielded a protein stability index of 4.61.
PRPHSNPPARGTLKTSNLPEELRK [P4H] showed a protein stability index of 4.5.
For PRPLSNPPARGTLKTSNLPEELRK [P4L], the protein stability index was 4.58.
Variant PRPGSNPPARGTLKTSNLPEELRK [P4G] has a protein stability index of 4.54.
Variant PRPRSNPPARGTLKTSNLPEELRK [P4R] has a protein stability index of 4.49.
PRPSSNPPARGTLKTSNLPEELRK [P4S] showed a protein stability index of 4.89.
Work on PRPCSNPPARGTLKTSNLPEELRK [P4C] yielded a protein stability index of 4.84.
Variant PRPVSNPPARGTLKTSNLPEELRK [P4V] has a protein stability index of 4.53.
With PRPASNPPARGTLKTSNLPEELRK [P4A] the protein stability index was 4.79.
Work on PRPISNPPARGTLKTSNLPEELRK [P4I] yielded a protein stability index of 4.66.
With PRPQSNPPARGTLKTSNLPEELRK [P4Q] the protein stability index was 4.88.
For PRPDSNPPARGTLKTSNLPEELRK [P4D], the protein stability index was 4.7.
In the case of PRPMSNPPARGTLKTSNLPEELRK [P4M], the protein stability index is reported as 4.39.
Variant PRPPSNPGARGTLKTSNLPEELRK [P8G] has a protein stability index of 4.82.
With PRPPSNPAARGTLKTSNLPEELRK [P8A] the protein stability index was 5.06.
With PRPPSNPIARGTLKTSNLPEELRK [P8I] the protein stability index was 4.72.
Variant PRPPSNPMARGTLKTSNLPEELRK [P8M] has a protein stability index of 4.76.
PRPPSNPLARGTLKTSNLPEELRK [P8L] showed a protein stability index of 4.69.
PRPPSNPHARGTLKTSNLPEELRK [P8H] showed a protein stability index of 3.56.
For PRPPSNPCARGTLKTSNLPEELRK [P8C], the protein stability index was 4.48.
Work on PRPPSNPNARGTLKTSNLPEELRK [P8N] yielded a protein stability index of 4.82.
Work on PRPPSNPDARGTLKTSNLPEELRK [P8D] yielded a protein stability index of 4.99.
For PRPPSNPFARGTLKTSNLPEELRK [P8F], the protein stability index was 4.43.
PRPPSNPEARGTLKTSNLPEELRK [P8E] gave a protein stability index of 4.81.
For PRPPSNPQARGTLKTSNLPEELRK [P8Q], the protein stability index was 5.09.
Variant PRPPSNPKARGTLKTSNLPEELRK [P8K] has a protein stability index of 4.99.
PRPPMNPPARGTLKTSNLPEELRK [S5M] showed a protein stability index of 5.
Work on PRPPLNPPARGTLKTSNLPEELRK [S5L] yielded a protein stability index of 4.19.
PRPPKNPPARGTLKTSNLPEELRK [S5K] gave a protein stability index of 4.21.
For PRPPCNPPARGTLKTSNLPEELRK [S5C], the protein stability index was 4.28.
Variant PRPPFNPPARGTLKTSNLPEELRK [S5F] has a protein stability index of 4.45.
In the case of PRPPVNPPARGTLKTSNLPEELRK [S5V], the protein stability index is reported as 4.76.
PRPPANPPARGTLKTSNLPEELRK [S5A] gave a protein stability index of 4.32.
PRPPHNPPARGTLKTSNLPEELRK [S5H] showed a protein stability index of 4.38.
In the case of PRPPNNPPARGTLKTSNLPEELRK [S5N], the protein stability index is reported as 4.63.
PRPPWNPPARGTLKTSNLPEELRK [S5W] showed a protein stability index of 3.98.
PRPPQNPPARGTLKTSNLPEELRK [S5Q] showed a protein stability index of 4.45.
PRPPTNPPARGTLKTSNLPEELRK [S5T] showed a protein stability index of 4.56.
Variant PRPPYNPPARGTLKTSNLPEELRK [S5Y] has a protein stability index of 3.84.
In the case of PRPPRNPPARGTLKTSNLPEELRK [S5R], the protein stability index is reported as 4.36.
PRPPENPPARGTLKTSNLPEELRK [S5E] gave a protein stability index of 4.55.
Variant PRPPGNPPARGTLKTSNLPEELRK [S5G] has a protein stability index of 4.89.
Work on PRPPDNPPARGTLKTSNLPEELRK [S5D] yielded a protein stability index of 3.83.
PRPPINPPARGTLKTSNLPEELRK [S5I] showed a protein stability index of 4.75.
PRPPSVPPARGTLKTSNLPEELRK [N6V] gave a protein stability index of 4.79.
Variant PRPPSMPPARGTLKTSNLPEELRK [N6M] has a protein stability index of 5.31.
PRPPSCPPARGTLKTSNLPEELRK [N6C] showed a protein stability index of 5.18.
PRPPSSPPARGTLKTSNLPEELRK [N6S] showed a protein stability index of 5.01.
For PRPPSDPPARGTLKTSNLPEELRK [N6D], the protein stability index was 4.8.
PRPPSWPPARGTLKTSNLPEELRK [N6W] gave a protein stability index of 5.83.
In the case of PRPPSAPPARGTLKTSNLPEELRK [N6A], the protein stability index is reported as 5.47.
Work on PRPPSKPPARGTLKTSNLPEELRK [N6K] yielded a protein stability index of 4.72.
With PRPPSIPPARGTLKTSNLPEELRK [N6I] the protein stability index was 4.62.
PRPPSEPPARGTLKTSNLPEELRK [N6E] gave a protein stability index of 5.15.
Work on PRPPSQPPARGTLKTSNLPEELRK [N6Q] yielded a protein stability index of 4.78.
In the case of PRPPSLPPARGTLKTSNLPEELRK [N6L], the protein stability index is reported as 5.01.
For PRPPSFPPARGTLKTSNLPEELRK [N6F], the protein stability index was 5.34.
PRPPSRPPARGTLKTSNLPEELRK [N6R] gave a protein stability index of 4.49.
In the case of PRPPSYPPARGTLKTSNLPEELRK [N6Y], the protein stability index is reported as 4.99.
Work on PRPPSGPPARGTLKTSNLPEELRK [N6G] yielded a protein stability index of 4.65.
PRPPSHPPARGTLKTSNLPEELRK [N6H] gave a protein stability index of 5.21.
Work on PRPPSTPPARGTLKTSNLPEELRK [N6T] yielded a protein stability index of 4.69.
PRPPSNEPARGTLKTSNLPEELRK [P7E] showed a protein stability index of 4.81.
For PRPPSNWPARGTLKTSNLPEELRK [P7W], the protein stability index was 4.02.
For PRPPSNGPARGTLKTSNLPEELRK [P7G], the protein stability index was 4.58.
Work on PRPPSNIPARGTLKTSNLPEELRK [P7I] yielded a protein stability index of 4.5.
For PRPPSNTPARGTLKTSNLPEELRK [P7T], the protein stability index was 4.76.
Work on PRPPSNDPARGTLKTSNLPEELRK [P7D] yielded a protein stability index of 4.97.
Work on PRPPSNNPARGTLKTSNLPEELRK [P7N] yielded a protein stability index of 5.17.
For PRPPSNCPARGTLKTSNLPEELRK [P7C], the protein stability index was 4.4.
With PRPPSNFPARGTLKTSNLPEELRK [P7F] the protein stability index was 4.21.
Variant PRPPSNHPARGTLKTSNLPEELRK [P7H] has a protein stability index of 4.27.
In the case of PRPPSNKPARGTLKTSNLPEELRK [P7K], the protein stability index is reported as 4.53.
Work on PRPPSNYPARGTLKTSNLPEELRK [P7Y] yielded a protein stability index of 4.05.
PRPPSNVPARGTLKTSNLPEELRK [P7V] showed a protein stability index of 4.11.
For PRPPSNAPARGTLKTSNLPEELRK [P7A], the protein stability index was 4.8.
Variant PRPPSNRPARGTLKTSNLPEELRK [P7R] has a protein stability index of 4.75.
Variant PRPPSNMPARGTLKTSNLPEELRK [P7M] has a protein stability index of 4.09.
With PRPPSNSPARGTLKTSNLPEELRK [P7S] the protein stability index was 4.89.
Variant PRPPSNQPARGTLKTSNLPEELRK [P7Q] has a protein stability index of 4.56.
With PRPPSNLPARGTLKTSNLPEELRK [P7L] the protein stability index was 4.83.
Variant PRQPSNPPARGTLKTSNLPEELRK [P3Q] has a protein stability index of 4.2.
For PRSPSNPPARGTLKTSNLPEELRK [P3S], the protein stability index was 4.95.
Work on PRTPSNPPARGTLKTSNLPEELRK [P3T] yielded a protein stability index of 4.9.
Work on PRRPSNPPARGTLKTSNLPEELRK [P3R] yielded a protein stability index of 4.54.
Work on PRYPSNPPARGTLKTSNLPEELRK [P3Y] yielded a protein stability index of 4.7.
Work on PRVPSNPPARGTLKTSNLPEELRK [P3V] yielded a protein stability index of 4.79.
With PRWPSNPPARGTLKTSNLPEELRK [P3W] the protein stability index was 4.83.
